Patent US20260191954A1, “COMPOSITIONS AND METHODS FOR NEOADJUVANT TREATMENT IN CANCER” (INNATE PHARMA, priority 2022, published 2026)

What was measured:
[1] = target: T1, recombinant human CD39 protein (huCD39) (Homo sapiens, UniProt P49961); assay: eATP release by H1703 (CD39-) cells incubated with recombinant huCD39, with or without IPH5201, then docetaxel; format: cell-based; settings: H1703 cells + huCD39 400 ng/ml + docetaxel 0.1 μM; IPH5201 10 μg/mL; 40 h; FIG. 3A
T1 sequence (P49961 38-478 limits assumed): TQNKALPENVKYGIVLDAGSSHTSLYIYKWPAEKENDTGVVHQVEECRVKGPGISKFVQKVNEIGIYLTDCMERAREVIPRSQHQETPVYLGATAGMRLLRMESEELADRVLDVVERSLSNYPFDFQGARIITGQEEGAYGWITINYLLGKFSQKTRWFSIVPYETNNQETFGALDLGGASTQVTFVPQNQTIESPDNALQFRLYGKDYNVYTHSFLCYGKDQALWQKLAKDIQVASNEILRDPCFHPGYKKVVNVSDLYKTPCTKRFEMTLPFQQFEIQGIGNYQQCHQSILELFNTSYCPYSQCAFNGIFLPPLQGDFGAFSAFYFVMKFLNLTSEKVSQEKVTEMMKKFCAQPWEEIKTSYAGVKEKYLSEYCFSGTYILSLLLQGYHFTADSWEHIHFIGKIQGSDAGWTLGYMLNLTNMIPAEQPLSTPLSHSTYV
Description: H1703 (CD39−) cells were incubated with recombinant human CD39 protein (huCD39) (400 ng/ml) to mimic soluble CD39 in tumor microenvironment with or without IPH5201 (humanized anti-CD39 antibody having the respective heavy and light chain amino acid sequences of SEQ ID NOS: 10 and 11) at 10 μg/mL and then treated with docetaxel (0.1 μM). The measure of extracellular ATP (eATP) release was performed 40 h after docetaxel treatment.
OAW42 (CD39+) cells were incubated with 10 or 50 μg/mL of IPH5201 and treated with a dose range of docetaxel. The measure of eATP release was performed 30 h after docetaxel treatment. eATP was measured in the cell culture supernatant with a luminescent-based assay (CellTiter-Glo®) and expressed in Luminescence Arbitrary Unit (AU). Means+/−SD.

[2] = Phase 1 study of IPH5201 +/- durvalumab in advanced solid tumours: safety; format: in vivo
Description: A first-in-human, multicentre, non-randomised, open-label, phase 1 study was conducted in order to assess the safety, efficacy, pharmacokinetics (PK) and pharmacodynamics (PD) of IPH5201±durvalumab (Imfinzi™) in patients with advanced solid tumours. The study consisted of two consecutive dose-escalation parts: • Part 1: Ascending doses of IPH5201 (100, 300, 1000 and 3000 mg) every 3 weeks (Q3W). • Part 2: Ascending doses of IPH5201 (300, 1000 and 3000 mg) and 1500 mg durvalumab Q3W.
PD cohorts enrolled patients with advanced squamous cell lung carcinoma or advanced pancreatic ductal adenocarcinoma in the top two dose levels of Parts 1 and 2. Primary endpoints were safety and tolerability. Key secondary endpoints included preliminary antitumour activity measured by objective response and disease control per RECIST v1.1, PK and immunogenicity. Exploratory endpoints included efficacy measured by duration of response and progression-free survival (PFS) per RECIST v1.1, overall survival and assessment of biomarkers.
Key inclusion criteria were: • Adults aged ≥18 years. • Histologically or cytologically confirmed advanced solid tumours. • At least one measurable lesion per RECIST v1.1. • Refractoriness to standard therapy or disease for which no standard therapy exists. • Eastern Cooperative Oncology Group Performance Status of 0 or 1. • Archival or fresh tumour sample. • Key exclusion criteria were: • Previous treatment with any agents targeting CD73, CD39, or adenosine receptors. • Treatment with any conventional or investigational anticancer therapy within 21 days of the first planned dose. • Active or prior autoimmune or inflammatory disorders within the past 5 years. • Cardiac and vascular criteria including presence of acute coronary syndrome or thromboembolic events within 6 months prior to enrolment, congestive heart failure, serious cardiac arrhythmia requiring medication, or uncontrolled hypertension. • Untreated metastases to the central nervous system.
Overall, 57 patients received treatment (IPH5201, n=38; IPH5201+durvalumab, n=19). […] Treatment-emergent adverse events (TEAEs) occurred in 96.5% of patients; 40.4% had grade ≥3 TEAEs. […] Treatment-related adverse events (TRAEs) occurred in 66.7% of patients (37/57 (64.9%) related to IPH5201; 11/19 (57.9%) related to durvalumab). […] The most common TRAEs were infusion-related reactions (21.1%), fatigue (17.5%), nausea, arthralgia, tumour pain and pruritus (8.8% each). […] Maximum tolerated dose (MTD) was not reached.

B1: IPH5201: humanized anti-CD39 antibody having the respective heavy and light chain amino acid sequences of SEQ ID NOS: 10 and 11 (antibody)
heavy: QVQLVQSGAEVKKPGASVKVSCKASGYTFTDYNMHWVRQAPGQRLEWIGYIVPLNGGSTFNQKFKGRATITVDTSARTAYMELSSLRSEDTAVYYCARGGTRFAYWGQGTLVTVSSASTKGPSVFPLAPSSKSTSGGTAALGCLVKDYFPEPVTVSWNSGALTSGVHTFPAVLQSSGLYSLSSVVTVPSSSLGTQTYICNVNHKPSNTKVDKRVEPKSCDKTHTCPPCPAPEAEGAPSVFLFPPKPKDTLMISRTPEVTCVVVDVSHEDPEVKFNWYVDGVEVHNAKTKPREEQYNSTYRVVSVLTVLHQDWLNGKEYKCKVSNKALPSSIEKTISKAKGQPREPQVYTLPPSREEMTKNQVSLTCLVKGFYPSDIAVEWESNGQPENNYKTTPPVLDSDGSFFLYSKLTVDKSRWQQGNVFSCSVMHEALHNHYTQKSLSLSPGK
light: DIVMTQSPDSLAVSLGERATINCRASESVDNFGVSFMYWFQQKPGQPPKLLIYGASNQGSGVPDRFSGSGSGTDFTLTISSLQAEDVAVYYCQQTKEVPYTFGGGTKVEIKRTVAAPSVFIFPPSDEQLKSGTASVVCLLNNFYPREAKVQWKVDNALQSGNSQESVTEQDSKDSTYSLSSTLTLSKADYEKHKVYACEVTHQGLSSPVTKSFNRGEC
[1]
  eATP release reduced by added huCD39: restored
[2]; all 57 treated patients
  deaths due to treatment: no deaths due to treatment
[2]; doses up to 3000 mg Q3W
  Maximum tolerated dose (MTD): not reached
[2]; in vivo
  DLTs during dose escalation: No DLTs were observed
  TEAE: anaemia: 19.3%
  TEAE: decreased appetite: 26.3%
  TEAE: fatigue: 28.1%
  TEAE: infusion-related reactions: 21.1%
  TEAE: tumour pain: 19.3%
  TRAE: arthralgia: 8.8%
  TRAE: fatigue: 17.5%
  TRAE: infusion-related reactions: 21.1%
  TRAE: nausea: 8.8%
  TRAE: pruritus: 8.8%
  TRAE: tumour pain: 8.8%
  correlation of dose with incidence of TEAEs of at least grade 3: No significant correlation
  grade 4 TRAEs: no grade 4 TRAEs
  patients with TRAEs related to IPH5201: 64.9%
  patients with TRAEs related to IPH5201, count: 37/57
  patients with grade 3 TRAEs: 10.5%
  patients with grade ≥3 TEAEs: 40.4%
  patients with treatment-emergent adverse events (TEAEs): 96.5%
  patients with treatment-related adverse events (TRAEs): 66.7%
